Where two headings read alike, the source gives them in different places. *1 amine or outer side, *2 acyl side, *3 side chain or, on linkers, in order; H or OH if unused. Where no end group is shown, it is not given here. Side-chain parts run from the residue outwards. [ ]: non-standard residue; d: D form. The star is where a group is joined. γGlu = O=C(O)[C@H](CCC(=O)[*:2])N[*:1]; Palmitoyl = CCCCCCCCCCCCCCCC(=O)*; Nle = CCCC[C@H](N)C(=O)O; Aib = CC(C)(N)C(=O)O
B1: SEQ ID NO: 32 (peptide)
peptide: Y[Aib]QGTFTSDLSIQK([γGlu-Palmitoyl])ESRAAQDFIEWLKAGGPSSGAPPPS-NH2
modifications: N-terminus assumed
SMILES: CCCCCCCCCCCCCCCC(=O)N[C@@H](CCC(=O)NCCCC[C@H](NC(=O)[C@H](CCC(N)=O)NC(=O)[C@@H](NC(=O)[C@H](CO)NC(=O)[C@H](CC(C)C)NC(=O)[C@H](CC(=O)O)NC(=O)[C@H](CO)NC(=O)[C@@H](NC(=O)[C@H](Cc1ccccc1)NC(=O)[C@@H](NC(=O)CNC(=O)[C@H](CCC(N)=O)NC(=O)C(C)(C)NC(=O)[C@@H](N)Cc1ccc(O)cc1)[C@@H](C)O)[C@@H](C)O)[C@@H](C)CC)C(=O)N[C@@H](CCC(=O)O)C(=O)N[C@@H](CO)C(=O)N[C@@H](CCCNC(=N)N)C(=O)N[C@@H](C)C(=O)N[C@@H](C)C(=O)N[C@@H](CCC(N)=O)C(=O)N[C@@H](CC(=O)O)C(=O)N[C@@H](Cc1ccccc1)C(=O)N[C@H](C(=O)N[C@@H](CCC(=O)O)C(=O)N[C@@H](Cc1c[nH]c2ccccc12)C(=O)N[C@@H](CC(C)C)C(=O)N[C@@H](CCCCN)C(=O)N[C@@H](C)C(=O)NCC(=O)NCC(=O)N1CCC[C@H]1C(=O)N[C@@H](CO)C(=O)N[C@@H](CO)C(=O)NCC(=O)N[C@@H](C)C(=O)N1CCC[C@H]1C(=O)N1CCC[C@H]1C(=O)N1CCC[C@H]1C(=O)N[C@@H](CO)C(N)=O)[C@@H](C)CC)C(=O)O
B2: SEQ ID NO: 40 (peptide)
peptide: Y[Aib]QGTFTSDLSIQLESRAAQDFIEWLKAGGPSSGAPPPS-NH2
modifications: N-terminus assumed
SMILES: CC[C@H](C)[C@H](NC(=O)[C@H](Cc1ccccc1)NC(=O)[C@H](CC(=O)O)NC(=O)[C@H](CCC(N)=O)NC(=O)[C@H](C)NC(=O)[C@H](C)NC(=O)[C@H](CCCNC(=N)N)NC(=O)[C@H](CO)NC(=O)[C@H](CCC(=O)O)NC(=O)[C@H](CC(C)C)NC(=O)[C@H](CCC(N)=O)NC(=O)[C@@H](NC(=O)[C@H](CO)NC(=O)[C@H](CC(C)C)NC(=O)[C@H](CC(=O)O)NC(=O)[C@H](CO)NC(=O)[C@@H](NC(=O)[C@H](Cc1ccccc1)NC(=O)[C@@H](NC(=O)CNC(=O)[C@H](CCC(N)=O)NC(=O)C(C)(C)NC(=O)[C@@H](N)Cc1ccc(O)cc1)[C@@H](C)O)[C@@H](C)O)[C@@H](C)CC)C(=O)N[C@@H](CCC(=O)O)C(=O)N[C@@H](Cc1c[nH]c2ccccc12)C(=O)N[C@@H](CC(C)C)C(=O)N[C@@H](CCCCN)C(=O)N[C@@H](C)C(=O)NCC(=O)NCC(=O)N1CCC[C@H]1C(=O)N[C@@H](CO)C(=O)N[C@@H](CO)C(=O)NCC(=O)N[C@@H](C)C(=O)N1CCC[C@H]1C(=O)N1CCC[C@H]1C(=O)N1CCC[C@H]1C(=O)N[C@@H](CO)C(N)=O
B3: SEQ ID NO: 41 (peptide)
peptide: Y[Aib]EGTFTSDLSIQ[Nle]EKRAA[Aib]EFIEWLKNTGPSSGAPPPS-NH2
modifications: N-terminus assumed
SMILES: CCCC[C@H](NC(=O)[C@H](CCC(N)=O)NC(=O)[C@@H](NC(=O)[C@H](CO)NC(=O)[C@H](CC(C)C)NC(=O)[C@H](CC(=O)O)NC(=O)[C@H](CO)NC(=O)[C@@H](NC(=O)[C@H](Cc1ccccc1)NC(=O)[C@@H](NC(=O)CNC(=O)[C@H](CCC(=O)O)NC(=O)C(C)(C)NC(=O)[C@@H](N)Cc1ccc(O)cc1)[C@@H](C)O)[C@@H](C)O)[C@@H](C)CC)C(=O)N[C@@H](CCC(=O)O)C(=O)N[C@@H](CCCCN)C(=O)N[C@@H](CCCNC(=N)N)C(=O)N[C@@H](C)C(=O)N[C@@H](C)C(=O)NC(C)(C)C(=O)N[C@@H](CCC(=O)O)C(=O)N[C@@H](Cc1ccccc1)C(=O)N[C@H](C(=O)N[C@@H](CCC(=O)O)C(=O)N[C@@H](Cc1c[nH]c2ccccc12)C(=O)N[C@@H](CC(C)C)C(=O)N[C@@H](CCCCN)C(=O)N[C@@H](CC(N)=O)C(=O)N[C@H](C(=O)NCC(=O)N1CCC[C@H]1C(=O)N[C@@H](CO)C(=O)N[C@@H](CO)C(=O)NCC(=O)N[C@@H](C)C(=O)N1CCC[C@H]1C(=O)N1CCC[C@H]1C(=O)N1CCC[C@H]1C(=O)N[C@@H](CO)C(N)=O)[C@@H](C)O)[C@@H](C)CC
B4: SEQ ID NO: 36 (peptide)
peptide: Y[Aib]EGTFTSDLSIQK([γGlu-Palmitoyl])EKRAA[Aib]EFIEWLKAGGPSSGAPPPS-NH2
modifications: N-terminus assumed
SMILES: CCCCCCCCCCCCCCCC(=O)N[C@@H](CCC(=O)NCCCC[C@H](NC(=O)[C@H](CCC(N)=O)NC(=O)[C@@H](NC(=O)[C@H](CO)NC(=O)[C@H](CC(C)C)NC(=O)[C@H](CC(=O)O)NC(=O)[C@H](CO)NC(=O)[C@@H](NC(=O)[C@H](Cc1ccccc1)NC(=O)[C@@H](NC(=O)CNC(=O)[C@H](CCC(=O)O)NC(=O)C(C)(C)NC(=O)[C@@H](N)Cc1ccc(O)cc1)[C@@H](C)O)[C@@H](C)O)[C@@H](C)CC)C(=O)N[C@@H](CCC(=O)O)C(=O)N[C@@H](CCCCN)C(=O)N[C@@H](CCCNC(=N)N)C(=O)N[C@@H](C)C(=O)N[C@@H](C)C(=O)NC(C)(C)C(=O)N[C@@H](CCC(=O)O)C(=O)N[C@@H](Cc1ccccc1)C(=O)N[C@H](C(=O)N[C@@H](CCC(=O)O)C(=O)N[C@@H](Cc1c[nH]c2ccccc12)C(=O)N[C@@H](CC(C)C)C(=O)N[C@@H](CCCCN)C(=O)N[C@@H](C)C(=O)NCC(=O)NCC(=O)N1CCC[C@H]1C(=O)N[C@@H](CO)C(=O)N[C@@H](CO)C(=O)NCC(=O)N[C@@H](C)C(=O)N1CCC[C@H]1C(=O)N1CCC[C@H]1C(=O)N1CCC[C@H]1C(=O)N[C@@H](CO)C(N)=O)[C@@H](C)CC)C(=O)O
B5: SEQ ID NO: 37 (peptide)
peptide: Y[Aib]QGTFTSDLSIQK([γGlu-Palmitoyl])DSRAAQDFIEWLKAGGPSSGAPPPS-NH2
modifications: N-terminus assumed
SMILES: CCCCCCCCCCCCCCCC(=O)N[C@@H](CCC(=O)NCCCC[C@H](NC(=O)[C@H](CCC(N)=O)NC(=O)[C@@H](NC(=O)[C@H](CO)NC(=O)[C@H](CC(C)C)NC(=O)[C@H](CC(=O)O)NC(=O)[C@H](CO)NC(=O)[C@@H](NC(=O)[C@H](Cc1ccccc1)NC(=O)[C@@H](NC(=O)CNC(=O)[C@H](CCC(N)=O)NC(=O)C(C)(C)NC(=O)[C@@H](N)Cc1ccc(O)cc1)[C@@H](C)O)[C@@H](C)O)[C@@H](C)CC)C(=O)N[C@@H](CC(=O)O)C(=O)N[C@@H](CO)C(=O)N[C@@H](CCCNC(=N)N)C(=O)N[C@@H](C)C(=O)N[C@@H](C)C(=O)N[C@@H](CCC(N)=O)C(=O)N[C@@H](CC(=O)O)C(=O)N[C@@H](Cc1ccccc1)C(=O)N[C@H](C(=O)N[C@@H](CCC(=O)O)C(=O)N[C@@H](Cc1c[nH]c2ccccc12)C(=O)N[C@@H](CC(C)C)C(=O)N[C@@H](CCCCN)C(=O)N[C@@H](C)C(=O)NCC(=O)NCC(=O)N1CCC[C@H]1C(=O)N[C@@H](CO)C(=O)N[C@@H](CO)C(=O)NCC(=O)N[C@@H](C)C(=O)N1CCC[C@H]1C(=O)N1CCC[C@H]1C(=O)N1CCC[C@H]1C(=O)N[C@@H](CO)C(N)=O)[C@@H](C)CC)C(=O)O
B6: SEQ ID NO: 9 (peptide)
peptide: Y[Aib]EGTFTSDLSIQK([γGlu-Palmitoyl])EKRAA[Aib]EFIEWLKNTGPSSGAPPPS-NH2
modifications: N-terminus assumed
SMILES: CCCCCCCCCCCCCCCC(=O)N[C@@H](CCC(=O)NCCCC[C@H](NC(=O)[C@H](CCC(N)=O)NC(=O)[C@@H](NC(=O)[C@H](CO)NC(=O)[C@H](CC(C)C)NC(=O)[C@H](CC(=O)O)NC(=O)[C@H](CO)NC(=O)[C@@H](NC(=O)[C@H](Cc1ccccc1)NC(=O)[C@@H](NC(=O)CNC(=O)[C@H](CCC(=O)O)NC(=O)C(C)(C)NC(=O)[C@@H](N)Cc1ccc(O)cc1)[C@@H](C)O)[C@@H](C)O)[C@@H](C)CC)C(=O)N[C@@H](CCC(=O)O)C(=O)N[C@@H](CCCCN)C(=O)N[C@@H](CCCNC(=N)N)C(=O)N[C@@H](C)C(=O)N[C@@H](C)C(=O)NC(C)(C)C(=O)N[C@@H](CCC(=O)O)C(=O)N[C@@H](Cc1ccccc1)C(=O)N[C@H](C(=O)N[C@@H](CCC(=O)O)C(=O)N[C@@H](Cc1c[nH]c2ccccc12)C(=O)N[C@@H](CC(C)C)C(=O)N[C@@H](CCCCN)C(=O)N[C@@H](CC(N)=O)C(=O)N[C@H](C(=O)NCC(=O)N1CCC[C@H]1C(=O)N[C@@H](CO)C(=O)N[C@@H](CO)C(=O)NCC(=O)N[C@@H](C)C(=O)N1CCC[C@H]1C(=O)N1CCC[C@H]1C(=O)N1CCC[C@H]1C(=O)N[C@@H](CO)C(N)=O)[C@@H](C)O)[C@@H](C)CC)C(=O)O

Assays:
Assay in all cases: cell-based or functional assay
[1] = target: T1, human GIP receptor (human) (UniProt P48546)
T1 sequence (looked up): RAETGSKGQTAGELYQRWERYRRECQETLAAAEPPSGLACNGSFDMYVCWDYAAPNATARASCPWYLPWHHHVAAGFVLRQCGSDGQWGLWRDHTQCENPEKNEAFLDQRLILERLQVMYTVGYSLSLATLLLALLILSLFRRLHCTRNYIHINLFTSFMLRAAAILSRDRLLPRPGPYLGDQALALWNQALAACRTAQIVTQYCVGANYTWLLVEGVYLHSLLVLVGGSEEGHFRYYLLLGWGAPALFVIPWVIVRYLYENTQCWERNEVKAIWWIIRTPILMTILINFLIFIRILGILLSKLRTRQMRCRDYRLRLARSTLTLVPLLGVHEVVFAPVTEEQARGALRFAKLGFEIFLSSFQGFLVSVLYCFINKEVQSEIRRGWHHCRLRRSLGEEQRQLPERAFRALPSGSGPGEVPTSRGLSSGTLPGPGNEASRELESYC

[2] = target: human GLP-1 receptor (human) (UniProt P43220)
Sequence of human GLP-1 receptor (human) (P43220 24-463): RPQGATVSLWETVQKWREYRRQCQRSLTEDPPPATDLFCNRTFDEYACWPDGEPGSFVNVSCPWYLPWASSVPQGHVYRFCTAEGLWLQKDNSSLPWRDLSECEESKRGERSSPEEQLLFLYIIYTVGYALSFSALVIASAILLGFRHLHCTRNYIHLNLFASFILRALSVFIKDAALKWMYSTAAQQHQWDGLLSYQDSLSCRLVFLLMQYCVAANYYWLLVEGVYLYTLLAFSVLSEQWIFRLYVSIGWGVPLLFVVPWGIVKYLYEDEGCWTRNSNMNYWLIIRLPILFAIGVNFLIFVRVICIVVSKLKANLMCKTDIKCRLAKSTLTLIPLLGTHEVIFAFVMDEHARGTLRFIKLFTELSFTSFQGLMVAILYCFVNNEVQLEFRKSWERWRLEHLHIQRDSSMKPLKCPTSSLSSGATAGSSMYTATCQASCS

human GLP-1 receptor [3] = target: T2, human GLP-1 receptor (human, UniProt P43220 24-463)
Target sequence in this assay (P43220 24-463): as above

human GIP receptor [4] = target: T3, human GIP receptor (human, UniProt P48546 22-466)
T3 sequence (looked up): T1 sequence (looked up)

human GLP-1 receptor [5] = target: T2, human GLP-1 receptor; remark: listed apart in the source
human GIP receptor [6] = target: T3, human GIP receptor; remark: listed apart in the source
human glucagon receptor = human glucagon receptor (human, UniProt P47871 26-477)
Sequence of human glucagon receptor (P47871 26-477): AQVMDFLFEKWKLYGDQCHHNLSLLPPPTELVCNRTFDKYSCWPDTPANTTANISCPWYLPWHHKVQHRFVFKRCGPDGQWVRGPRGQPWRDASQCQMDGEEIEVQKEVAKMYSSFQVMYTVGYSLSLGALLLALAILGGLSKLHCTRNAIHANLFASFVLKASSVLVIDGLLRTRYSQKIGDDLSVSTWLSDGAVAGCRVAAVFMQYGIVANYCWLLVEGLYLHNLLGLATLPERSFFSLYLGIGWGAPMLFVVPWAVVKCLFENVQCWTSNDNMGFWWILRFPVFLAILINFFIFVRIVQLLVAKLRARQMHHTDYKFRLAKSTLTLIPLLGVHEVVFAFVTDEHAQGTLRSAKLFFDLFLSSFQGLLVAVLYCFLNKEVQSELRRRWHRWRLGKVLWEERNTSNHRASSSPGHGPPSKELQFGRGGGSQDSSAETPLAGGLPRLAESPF

human GLP-1 receptor [7] = target: T2, human GLP-1 receptor; remark: listed apart in the source
human GIP receptor [8] = target: T3, human GIP receptor; remark: listed apart in the source

Row | Molecule | EC50 hGLP-1 R [pM] (human GLP-1 receptor [5]) | EC50 hGIP R [pM] (human GIP receptor [6]) | EC50 hGLUC R [pM] (human glucagon receptor) | EC50 hGLP-1 R [pM] (human GLP-1 receptor [7]) | EC50 hGIP R [pM] (human GIP receptor [8]) | also measured
1 | natural GIP (glucose-dependent insulinotropic polypeptide) (from UniProt P09681 52-93) (ligand) | – | – | – | – | – | EC50 [1]: 0.4 pM
2 | Tyr(1)Ile(12)-exendin-4 (peptide) | – | – | – | – | – | EC50 hGIP R [pM] [1]: 93.9 pM; EC50 hGLP-1 R [pM] [2]: 1.3 pM
3 | Tyr(1)Ile(12)-GLP1 (peptide) | – | – | – | – | – | EC50 hGLP-1 R [pM] (human GLP-1 receptor [3]): 5 pM; EC50 hGIP R [pM] (human GIP receptor [4]): 3660 pM
4 | B1 | 8.4 pM | 7.1 pM | 82.6 pM | 8.4 pM | 7.1 pM | –
5 | B2 | – | – | – | 3.2 pM | 858 pM | –
6 | B3 | – | – | – | 11.2 pM | 449 pM | –
7 | B4 | 3.4 pM | 6.4 pM | 5780 pM | – | – | –
8 | B5 | 8.9 pM | 21.2 pM | 32 pM | – | – | –
9 | B6 | 3.6 pM | 5.7 pM | 7710 pM | 3.6 pM | 5.7 pM | –
